Columns and labels:
[1] = test system: S. pneumoniae ATCC TIGR 4; test: Bacteriolytic (turbidity reduction) assay; format: cell-based, Streptococcus pneumoniae; conditions: 5 μg/ml; OD from 1.0 to 0.2 within the first 2 min; overnight culture
Method: (§1) In a bacteriolytic assay, bacterial culture (stationary phase) was harvested at 5,000 for 10 min at 4° C., washed twice and resuspended in PBS buffer, pH7.4. In a 96-well titration plate, the resuspended bacterial solution was mixed 1:1 (u/u) with endolysin to a final OD600 between 0.8 to 1.0. In each run, PBS was included as a negative control. Spectrophotometric readings (OD600) were taken every 15 s over 10 min on a spectrophotometer. Vmax was calculated as the slope of the linear portion and represented the endolysins activity. All experiments were conducted in triplicate to get the standard deviation.
(§2) Bacteriolytic capacity of ClyX-1 and ClyX-1 linkers were analyzed via the turbidity reduction assay against the overnight culture of S. pneumoniae ATCC TIGR 4. Both enzymes-induced lysis of the bacterial peptidoglycan caused a decrease in OD from 1.0 to 0.2 (80%) within the first 2 min of the turbidity assay at 5 μg/ml as shown in FIG. 9a. The linkers were the only difference between these two enzymes, and the unstructured region of PlyCA GyH, PlyCA CHAP, and Cpl-1 CBD provide optimal flexibility for enzymatical activity. High lytic activity correlated with data for bacterial survival after chimera treatment. ClyX-1 sterilized cultures for 5 min, causing a decrease in TIGR 4 viability of ˜6 log, at as low as 0.5 μg/ml (FIG. 9b). […]

TIGR 4 = test: Bactericidal assay (log killing), 5 min; format: cell-based, Streptococcus pneumoniae; conditions: 0.5 μg/ml
Method: (§3) With regard to bactericidal assay, bacterial cells were diluted to 2× rich media to generate a final concentration of 5.0×10^6 CFU/ml. 100 μl of the diluted bacterial culture was added into a 96-well titration plate in triplicate and mixed with 100 μl of sterile-filtered enzymes. Plates were sealed and incubated at 37° C. for 5-60 min. After the incubation, bacterial cells were serially diluted in 10-fold increments into sterile PBS and plated on THY/TSB agar. Log killing was calculated as follows: −log[(CFU under enzyme treatment)/(CFU under PBS treatment)].
as §2, with “9b). Stability of ClyX-1 at different temperature and pH was surveyed to determine optimal conditions.” for “9b).”

[2] = test system: stationary phase S. pneumoniae TIGR 4; test: Temperature stability and pH optimum of ClyX-1 by turbidity reduction assay; format: cell-based, Streptococcus pneumoniae
Method: as §1
The optimal biochemical conditions for ClyX-1 against stationary phase S. pneumoniae TIGR 4 were determined using the turbidity reduction assay described above. For temperature stability, ClyX-1 was incubated at indicated temperatures (4° C., 16° C., 25° C., 37° C., 45° C., 55° C., or 65° C.)/tsb for 30 min, recovered on ice for 5 min, and subjected to the spectrophotometric analysis. For optimal pH condition, pneumococci TIGR 4 were suspended in 40 mM boric acid/phosphoric acid (BP) buffer, pH 3-10, and were challenged against ClyX-1.

S. pneumoniae strains = test: Antimicrobial spectrum of ClyX-1 by turbidity reduction assay, pneumococci; format: cell-based, Streptococcus pneumoniae; conditions: 14 most frequent serotypes, Lyt 4.4, R36A and R6; 5 μg/ml, 10 min
Method: (§4) (b) Bactericidal effects of ClyX-1 against stationary phase S. pneumoniae R6. Different concentrations of ClyX-1 were mixed with 10^6 overnight bacterial culture for 5 min. Log killing was determined through the comparisons of PBS treatment and ClyX-1 treatment. (c)-(d) Biochemical characterization of ClyX-1. The effects of temperature stability (c) and pH (d) were evaluated. […] of ClyX-1 was assayed for lytic activity via turbidity reduction assay against stationary phase S. pneumoniae TIGR 4 cells for 10 min. Values were presented as percentage of lytic activity in a relation to activity observed for pH 7 and 37° C. (e) The host range of ClyX-1. Multiple strains of streptococci were tested for susceptibility. The bacterial cells were washed twice and resuspended in PBS to a final OD600 of 0.9-1.0. The changes of OD600 were presented after treating with […] of ClyX-1 for 10 min;
(§5) In a bacteriolytic assay, bacterial culture (stationary phase) was harvested at 5,000 for 10 min at 4° C., washed twice and resuspended in PBS buffer, pH7.4. In a 96-well titration plate, the resuspended bacterial solution was mixed 1:1 (u/u) with endolysin to a final OD600 between 0.8 to 1.0. […] Spectrophotometric readings (OD600) were taken every 15 s over 10 min on a spectrophotometer. Vmax was calculated as the slope of the linear portion and represented the endolysins activity. […]

other streptococci = test: Antimicrobial spectrum of ClyX-1 by turbidity reduction assay, other streptococci; format: cell-based; conditions: 5 μg/ml, 10 min
Method: as §4, §5

S. pneumoniae D39 = test: Bactericidal assay on D39, ClyX-1 compared with Cpl-1 and PlyCA; format: cell-based, Streptococcus pneumoniae
Method: (§6) (a) Different concentrations of ClyX-1 and Cpl-1 were mixed with 10^6 overnight S. pneumoniae D39 culture for 5 min. The cells were then serial diluted and plated on the THY plates. Log killing was determined through the comparisons of PBS treatment and the enzymes treatment. (b) Female BALB/c mice were injected intraperitoneally with pneumococcus strain S. pneumoniae NS26 at a single dose at 2.95×10^7 colony forming units (CFU) per mouse. One hour after the infection, mice were intraperitoneally received a single dose of different treatments in different amount per mouse. The lines represent the percentage survival of mice for 10 days. The data was plotted as Kaplan-Meier survival curves and analyzed via the Log-rank (Mantel-Cox) test (*P<0.001; **P<0.0001);
as §3
Bactericidal assays were repeated using the three lysins at different concentrations (0.5 μg/ml to 50 μg/ml) on a different strain, D39 (FIG. 10a).

S. pneumoniae NS26 = test: Mouse systemic infection model, survival; format: in vivo, female BALB/c mice; conditions: 10 days
Method: as §6
With regard to in vivo mouse infection models, mouse infection experiments were carried out in an ABSL-2 lab. In the mouse systemic infection model, female BALB/c mice (6-8 weeks old) were injected intraperitoneally with S. pneumoniae NS26 at a single dose of 2.95×10^7 CFU/mouse and divided randomly into multiple groups. Bacterial burden in blood and organs in mice 1 h post-infected were confirmed by plating on THY agar as described previously. One hour post-infection, these groups intraperitoneally received a single dose of 20, 40, or 80 μg/mouse of […] (n=10); 20, 40, or 80 μg/mouse of Cpl-1 (n=10); 100 μg/mouse of penicillin G (n=10); or an equal volume of PBS buffer (n=10). The survival data for all groups were recorded for 10 days.
To validate the in vitro bactericidal activity of ClyX-1, we applied a mouse systemic infection model to test the in vivo efficacy of the enzyme. Mice were challenged to a 2-days lethal-dose of 2.95×10^7 CFU. One hour after infection, the mice were intraperitoneally injected a single dose containing different amount of either ClyX-1 or Cpl-1 ranging from 20 μg-80 μg. The antibiotics control was 100 μg/mouse of penicillin G, and the negative control was as PBS, pH7.4 buffer. The mice were then observed and recorded for the survival data. All the mice treated with PBS buffer died within the first 2 days.

[3] = test system: GAS, GBS, GCS, S. uberis, S. suis and S. mutants; test: Bactericidal activity of ClyX-4 on streptococci; format: cell-based; conditions: 50 μg/ml; 1 h
Method: (a) Bactericidal effects of ClyX-3 against five strains of stationary phase S. pneumoniae. 5 μg/ml of enzymes were mixed with 10^6 bacterial cultures for 5 min. Log killing was determined through the comparisons of PBS treatment and enzymes treatment. (b) Bactericidal effects of ClyX-4 against stationary phase streptococci. 50 μg/ml of enzymes were mixed with 10^6 bacterial culture for 1 h. Log killing was determined through the comparisons of PBS treatment and enzymes treatment;
as §3
With regard to applying the design rationale to add a C′ terminal EAD such that two EADs are disposed at each side of the CBD, the process was used to engineer endolysins for increased activity. […]

[4] = test system: other streptococci strains; test: MIC test on other streptococci strains; format: cell-based
Method: The MICs of enzymes and antibiotics were determined in a 96-well titration plate in triplicate. Briefly, the overnight pneumococcal culture was diluted with 2×THY to obtain a final concentration of 1×10^7 CFU/ml, and other bacterial species were diluted with 2-folded medium to 1×10^5 CFU/ml. 100 μl of the diluted bacterial culture was subjected into each well, mixing with the serial 2-fold diluted 100 μl of enzymes/antibiotics. PBS buffer was used as a negative control. The plates were sealed via parafilm and statically incubated at 37° C. incubator for 24 h. The MIC was defined as the lowest concentration of treatment that inhibited visible growth of the bacterium.
With regard to applying the design rationale to add a C′ terminal EAD such that two EADs are disposed at each side of the CBD, the process was used to engineer endolysins for increased activity. We created the ClyX-3, the full-length Cpl-1 with an additional C′ terminal PlyC CHAP, and ClyX-4, the full-length PlySs2 with an additional C′ terminal Cpl-1 EAD (GH25) (FIG. 4 and FIG. 6). These constructs were expressed and purified as soluble proteins.

[5] = incubated 30 min at indicated temperature before assay

Row | Molecule | decrease in OD in turbidity assay [1] | decrease in viability (TIGR 4) | optimal pH condition ([2]; BP buffer pH 3-10) | pH above which activity is lost (protein precipitation) ([2]; BP buffer pH 3-10) | pH below which activity is lost (protein precipitation) ([2]; BP buffer pH 3-10) | temperature above which the activity rapidly dropped [2, 5] | temperature below which the enzyme was stable with highest activity [2, 5] | susceptibility of all tested pneumococcal strains (S. pneumoniae strains) | lysis of other streptococci (other streptococci) | fold increase in activity in vitro against S. pneumoniae compared to the parental enzyme (S. pneumoniae D39; versus parental Cpl-1) | concentration at which the bacteria culture was sterilized (S. pneumoniae D39; within 5 min, tested 0.5 to 50 μg/ml) | mice rescued (survival) (S. pneumoniae NS26; 20 μg single i.p. dose 1 h after infection) | mice rescued (survival) (S. pneumoniae NS26; 40 μg single i.p. dose 1 h after infection) | mice rescued (survival) (S. pneumoniae NS26; 80 μg single i.p. dose 1 h after infection) | bactericidal activity compared with PlySs2 [3] | activity by MIC compared with parental endolysin and ClyX-2 [4]
1 | ClyX-1: chimeric endolysin, Seq. ID No. 17: Cpl-1 CBD fused between GyH and CHAP catalytic domains of PlyCA (protein, Bacteriophage, ID No. 17: Cpl-1 CBD fused between GyH and CHAP catalytic domains of PlyCA) MSKKYTQQQYEKYLAQPANNTFGLSPQQVADWFMGQAGARPVINSYGVNASNLVSTYIPKMQEYGVSYTLFLMYTVFEGGGAGNWINHYMYDTGSNGLECLEHDLQYIHGVWETYFPPALSAPECYPATEDNAGALDRFYQSLPGRTWGDVMIPSTMAGNAWVWAYNYCVNNQGAAPLVYFGNPYDSQIDSLLAMGADPFTGGSIMEEDDKPKTAGTWKQDSKGWWFRRNNGSFPYNKWEKIGGVWYYFDSKGYCLTSEWLKDNEKWYYLKDNGAMATGWVLVGSEWYYMDDSGAMVTGWVKYKNNWYYMTNERGNMVSNEFIKSGKGWYFMNTNGELADNPSFTKEPDGLITVAGSDRVAANLANAQAQVGKYIGDGQCYAWVGWWSARVCGYSISYSTGDPMLPLIGDGMNAHSIHLGWDWSIANTGIVNYPVGTVGRKEDLRVGAIWCATAFSGAPFYTGQYGHTGIIESWSDTTVTVLEQNILGSPVIRSTYDLNTFLSTLTGLITFK | 80% | ~6 log | 6.5 | above 8 | below 4 | above 45 °C | below 37 °C | susceptible | lysis of no other streptococci tested | ~100 fold | ≤ 0.5 µg/mL | 30% | 40% | 80% | – | –
2 | ClyX-4: the full-length PlySs2 with an additional C′ terminal Cpl-1 EAD (GH25); Seq. ID No. 22 (protein, Bacteriophage, the full-length PlySs2 with an additional C′ terminal Cpl-1 EAD (GH25); ID No. 22) MTTVNEALNNVRAQVGSGVSVGNGECYALASWYERMISPDATVGLGAGVGWVSGAIGDTISAKNIGSSYNWQANGWTVSTSGPFKAGQIVTLGATPGNPYGHVVIVEAVDGDRLTILEQNYGGKRYPVRNYYSAASYRQQVVHYITPPGTVAQSAPNLAGSRSYRETGTMTVTVDALNVRRAPNTSGEIVAVYKRGESFDYDTVIIDVNGYVWVSYIGGSGKRNYVATGATKDGKRFGNAWGTFKMVKKNDLFVDVSSHNGYDITGILEQMGTTNTIIKISESTTYLNPCLSAQVEQSNPIGFYHFARFGGDVAEAEREAQFFLDNVPMQVKYLVLDYEDDPSGDAQANTNACLRFMQMIADAGYKPIYYSYKPFTHDNVDYQQILAQFPNSLWIAGYGLNDGTANFEYFPSMDGIRWWQYSSNPFDKNIVLLDDEEDDKPKTAGTWKQDSKGWWFRRNNGSFPY | – | – | – | – | – | – | – | – | – | – | – | – | – | – | more active than PlySs2 | better than parental endolysins

Source: patent publication US10975365B2, “Di-enzymatic chimeric endolysin” (Government of the United States of America, as represented …, priority 2018, dated 2021)
